Experimental data from the supplement of paper PMC10567573.

B1: RIPK4 (parent)
chain: AAWQGHLPIVKLLAKQPGVSVNAQ

Variants of: B1
Assay: protein stability index of a GFP-peptide fusion (GPS, HEK-293T) (PSI 1-6); higher = more stable
Conditions: c terminus: a fixed tail appended
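Note: lentivirally expressed fusions sorted by FACS into six bins by GFP to DsRed ratio, PSI derived from sequencing read proportions per bin multiplied by bin number.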

| Variant | protein stability index |
| --- | --- |
| AAWAGHLPIVKLLAKQPGVSVNAQ [Q4A] | 1.93 |
| AAWHGHLPIVKLLAKQPGVSVNAQ [Q4H] | 3.18 |
| AAWSGHLPIVKLLAKQPGVSVNAQ [Q4S] | 2.18 |
| AAWTGHLPIVKLLAKQPGVSVNAQ [Q4T] | 2.65 |
| AAWCGHLPIVKLLAKQPGVSVNAQ [Q4C] | 3.15 |
| AAWEGHLPIVKLLAKQPGVSVNAQ [Q4E] | 2.45 |
| AAWYGHLPIVKLLAKQPGVSVNAQ [Q4Y] | 1.51 |
| AAWVGHLPIVKLLAKQPGVSVNAQ [Q4V] | 1.7 |
| AAWPGHLPIVKLLAKQPGVSVNAQ [Q4P] | 3.34 |
| AAWLGHLPIVKLLAKQPGVSVNAQ [Q4L] | 1.32 |
| AAWDGHLPIVKLLAKQPGVSVNAQ [Q4D] | 2.62 |
| AAWIGHLPIVKLLAKQPGVSVNAQ [Q4I] | 1.34 |
| DAWQGHLPIVKLLAKQPGVSVNAQ [A1D] | 3.41 |
| IAWQGHLPIVKLLAKQPGVSVNAQ [A1I] | 1.95 |
| MAWQGHLPIVKLLAKQPGVSVNAQ [A1M] | 1.98 |
| GAWQGHLPIVKLLAKQPGVSVNAQ [A1G] | 1.34 |
| NAWQGHLPIVKLLAKQPGVSVNAQ [A1N] | 2.35 |
| TAWQGHLPIVKLLAKQPGVSVNAQ [A1T] | 2.22 |
| HAWQGHLPIVKLLAKQPGVSVNAQ [A1H] | 2.77 |
| SAWQGHLPIVKLLAKQPGVSVNAQ [A1S] | 2.56 |
| CAWQGHLPIVKLLAKQPGVSVNAQ [A1C] | 2.18 |
| KAWQGHLPIVKLLAKQPGVSVNAQ [A1K] | 2.25 |
| PAWQGHLPIVKLLAKQPGVSVNAQ [A1P] | 2.81 |
| LAWQGHLPIVKLLAKQPGVSVNAQ [A1L] | 1.05 |

| Variant | protein stability index |
| --- | --- |
| EAWQGHLPIVKLLAKQPGVSVNAQ [A1E] | 2.24 |
| FAWQGHLPIVKLLAKQPGVSVNAQ [A1F] | 3.12 |
| AAWQMHLPIVKLLAKQPGVSVNAQ [G5M] | 2.37 |
| AAWQKHLPIVKLLAKQPGVSVNAQ [G5K] | 1.97 |
| AAWQAHLPIVKLLAKQPGVSVNAQ [G5A] | 2.02 |
| AAWQPHLPIVKLLAKQPGVSVNAQ [G5P] | 2.56 |
| AAWQLHLPIVKLLAKQPGVSVNAQ [G5L] | 1.52 |
| AAWQIHLPIVKLLAKQPGVSVNAQ [G5I] | 1.81 |
| AAWQNHLPIVKLLAKQPGVSVNAQ [G5N] | 3.7 |
| AAWQSHLPIVKLLAKQPGVSVNAQ [G5S] | 2.2 |
| AAWQTHLPIVKLLAKQPGVSVNAQ [G5T] | 2.69 |
| AAWQEHLPIVKLLAKQPGVSVNAQ [G5E] | 2.83 |
| AAWQQHLPIVKLLAKQPGVSVNAQ [G5Q] | 2.44 |
| AAWQHHLPIVKLLAKQPGVSVNAQ [G5H] | 1.86 |
| AAWQYHLPIVKLLAKQPGVSVNAQ [G5Y] | 2.89 |
| AAWQCHLPIVKLLAKQPGVSVNAQ [G5C] | 2.69 |
| AAWQRHLPIVKLLAKQPGVSVNAQ [G5R] | 2.36 |
| AAWQVHLPIVKLLAKQPGVSVNAQ [G5V] | 2.58 |
| AAWQWHLPIVKLLAKQPGVSVNAQ [G5W] | 1.71 |
| AAWQDHLPIVKLLAKQPGVSVNAQ [G5D] | 2.94 |
| AAIQGHLPIVKLLAKQPGVSVNAQ [W3I] | 3.07 |
| AADQGHLPIVKLLAKQPGVSVNAQ [W3D] | 3.85 |
| AAQQGHLPIVKLLAKQPGVSVNAQ [W3Q] | 3.5 |
| AAPQGHLPIVKLLAKQPGVSVNAQ [W3P] | 3.82 |

| Variant | protein stability index |
| --- | --- |
| AASQGHLPIVKLLAKQPGVSVNAQ [W3S] | 3.65 |
| AANQGHLPIVKLLAKQPGVSVNAQ [W3N] | 3.29 |
| AARQGHLPIVKLLAKQPGVSVNAQ [W3R] | 2.98 |
| AALQGHLPIVKLLAKQPGVSVNAQ [W3L] | 2.42 |
| AAVQGHLPIVKLLAKQPGVSVNAQ [W3V] | 2.49 |
| AAAQGHLPIVKLLAKQPGVSVNAQ [W3A] | 3.2 |
| AAGQGHLPIVKLLAKQPGVSVNAQ [W3G] | 2.91 |
| AACQGHLPIVKLLAKQPGVSVNAQ [W3C] | 3.78 |
| AAEQGHLPIVKLLAKQPGVSVNAQ [W3E] | 3.63 |
| AAHQGHLPIVKLLAKQPGVSVNAQ [W3H] | 3.06 |
| AAYQGHLPIVKLLAKQPGVSVNAQ [W3Y] | 2.42 |
| AAKQGHLPIVKLLAKQPGVSVNAQ [W3K] | 3.21 |
| AAFQGHLPIVKLLAKQPGVSVNAQ [W3F] | 2.97 |
| AAMQGHLPIVKLLAKQPGVSVNAQ [W3M] | 3.88 |
| AATQGHLPIVKLLAKQPGVSVNAQ [W3T] | 3.56 |
| AAWQGQLPIVKLLAKQPGVSVNAQ [H6Q] | 2.76 |
| AAWQGNLPIVKLLAKQPGVSVNAQ [H6N] | 2.2 |
| AAWQGPLPIVKLLAKQPGVSVNAQ [H6P] | 2.67 |
| AAWQGSLPIVKLLAKQPGVSVNAQ [H6S] | 1.84 |
| AAWQGYLPIVKLLAKQPGVSVNAQ [H6Y] | 1.1 |
| AAWQGTLPIVKLLAKQPGVSVNAQ [H6T] | 2.32 |
| AAWQGILPIVKLLAKQPGVSVNAQ [H6I] | 2.65 |
| AAWQGLLPIVKLLAKQPGVSVNAQ [H6L] | 1.45 |
| AAWQGDLPIVKLLAKQPGVSVNAQ [H6D] | 2.98 |

| Variant | protein stability index |
| --- | --- |
| AAWQGALPIVKLLAKQPGVSVNAQ [H6A] | 2.54 |
| AAWQGVLPIVKLLAKQPGVSVNAQ [H6V] | 4 |
| AAWQGFLPIVKLLAKQPGVSVNAQ [H6F] | 1.41 |
| AAWQGMLPIVKLLAKQPGVSVNAQ [H6M] | 1.86 |
| AAWQGELPIVKLLAKQPGVSVNAQ [H6E] | 2.81 |
| AIWQGHLPIVKLLAKQPGVSVNAQ [A2I] | 1.66 |
| AFWQGHLPIVKLLAKQPGVSVNAQ [A2F] | 2.15 |
| AYWQGHLPIVKLLAKQPGVSVNAQ [A2Y] | 2.12 |
| AQWQGHLPIVKLLAKQPGVSVNAQ [A2Q] | 2.62 |
| AMWQGHLPIVKLLAKQPGVSVNAQ [A2M] | 2.73 |
| ASWQGHLPIVKLLAKQPGVSVNAQ [A2S] | 2.25 |
| AKWQGHLPIVKLLAKQPGVSVNAQ [A2K] | 2.37 |
| ANWQGHLPIVKLLAKQPGVSVNAQ [A2N] | 3.16 |
| ACWQGHLPIVKLLAKQPGVSVNAQ [A2C] | 2.19 |
| AEWQGHLPIVKLLAKQPGVSVNAQ [A2E] | 2.69 |
| ATWQGHLPIVKLLAKQPGVSVNAQ [A2T] | 3.11 |
| AHWQGHLPIVKLLAKQPGVSVNAQ [A2H] | 2.8 |
| ALWQGHLPIVKLLAKQPGVSVNAQ [A2L] | 2.38 |
| AGWQGHLPIVKLLAKQPGVSVNAQ [A2G] | 2.27 |
| APWQGHLPIVKLLAKQPGVSVNAQ [A2P] | 3.69 |
| ADWQGHLPIVKLLAKQPGVSVNAQ [A2D] | 3.76 |
| ARWQGHLPIVKLLAKQPGVSVNAQ [A2R] | 2.72 |
